Ki, Km and stoichiometry N data for five molecules are collected here from publication PMC9835603, “A conserved SH3-like fold in diverse putative proteins tetramerizes into an oxidoreductase providing an antimicrobial resistance phenotype” (Philosophical Transactions of the Royal Society B: …, 2023).

One data set addresses T1, DfrB-H5 (Methylobacterium pseudosasicola, UniProt A0A1I4V6W3).
T1 construct: gene SAMN05192568_10896; full-length 365-residue protein, N-terminal His6 tag
Briefly: dihydrofolate reductase activity assay at […] nm with purified enzyme; Ki from IC50 by Cheng-Prusoff. The class given is biochemical.

The test system of data set [1] is NC(=O)C1=CN([C@@H]2O[C@H](COP(=O)(O)OP(=O)(O)OC[C@H]3O[C@@H](n4cnc5c(N)ncnc54)[C@H](OP(=O)(O)O)[C@@H]3O)[C@@H](O)[C@H]2O)C=CC1. Kind of data set: steady-state kinetics (KM) with purified enzyme. The note with it: varied: cofactor. The class given is biochemical, Escherichia coli.
Data set [2] deals with DfrB-H5 (distant DfrB homologue from Methylobacterium pseudosasicola) (Methylobacterium pseudosasicola). Kind of data set: negative-stain electron microscopy; purified protein from a single gel filtration peak, 40 ng/ul, uranyl formate stain, two-dimensional classification. In general terms: Size exclusion chromatography separates by hydrodynamic size, large species first.
Data set [3] shares this target. The data set is described as above. The source holds these as a separate data set.
The target in data set [4] is His6-DfrB1 (type B dihydrofolate reductase DfrB1). Kind of data set: SEC-MALS; SEC-MALLS; Superdex 200 10/300 GL for DfrB-H5, Superdex 75 10/300 GL for DfrB1, 0.4 ml/min.
For data set [5] the target is unchanged. Briefly: negative-stain electron microscopy; purified protein from a single gel filtration peak, 40 ng/ul, uranyl formate stain, two-dimensional classification.

Values joined by “and” are separate entries in the source; they are usually repeats but may differ in a detail not shown here. Equal values may be shown once. Read-outs that look alike come from different tables or passages of the source.

Take `O=C(O)c1ccc2[nH]c(-c3ccc(OCCCCCOc4ccc(-c5nc6cc(C(=O)O)ccc6[nH]5)cc4)cc3)nc2c1` [compound 1, 2,2′-[1,5-pentanediylbis(4-oxyphenylene)]-bis-1H-benzimidazole-5-carboxylic acid]: the Ki on DfrB-H5 (read-out: 1 / Ki) came to 12 ± 6 µM.

In the case of `CC1(C)Nc2nc(N)[nH]c(=O)c2N=C1C(=O)NCCN1CCC(SC[C@H]2O[C@@H](n3cnc4c(N)ncnc43)[C@H](O)[C@@H]2O)CC1` [compound 2, 2-amino-N-(2-(4-((((2S,3S,4R,5R)-5-(6-amino-9H-purin-9-yl)-3,4-dihydroxytetrahydrofuran-2-yl)methyl)thio)piperidin-1-yl)ethyl)-7,7-dimethyl-4-oxo-3,4,7,8-tetrahydropteridine-6-carboxamide], the Ki at DfrB-H5 (read-out: 2 / Ki) was determined as 30 ± 10 µM.

The Km is the concentration of substrate that gives half-maximal velocity. On to DfrB1 (Escherichia coli; Y69L), for which the Km in data set [1] is 170 ± 20 µM.

Usually stoichiometry N stands for the number of molecules, sites or subunits per partner or assembly. Turning to “DfrB-H5 (distant DfrB homologue from Methylobacterium pseudosasicola) (enzyme)”, the stoichiometry N in data set [2] is 4; in data set [3], 2 and 3.

“His6-DfrB1 (type B dihydrofolate reductase DfrB1) (enzyme)”: the stoichiometry N in data set [4] and in data set [5] was 4 throughout.
